According to patent US9113649B2, “Food additive comprising an amidase for detoxifying ochratoxin” (DuPont Nutrition Biosciences ApS, priority 2010, dated 2015):
Where two headings read alike, the source gives them in different places.

What was measured:
[1] = rat, in vivo; cited from earlier work
[2] = format: biochemical; conditions: for ability to degrade ochratoxin A: enzyme screen, 20 h
Protocol: Activity was expressed in % OT-α (product of OTA) area: the area corresponding to the product divided by the total area (peak area of OTA plus OT-α).
The buffers employed in the assay were: 50 mM sodium acetate buffer (pH 4, 4.5, 5 and 5.5); 50 mM MES buffer (pH 6, 6.5 and 7); 0.2M Mops-NaOH) pH7.0), 50 mM Tris-HCl buffer (pH 7.5, 8 and 8.5). Ochratoxin A (OTA) solution (1 mg/mL) was made of 5 mg ochratoxin A (Sigma, ref. 32937) dissolved in ethanol/water (60/40) and stored at −20° C. Screening assays were performed with […] OTA solution and different enzyme concentrations (for example, 0.1-5 mg/ml) in a final volume of 300 μL. Enzymatic reactions were done at 37° C. for 20 h±1 h under constant agitation. Samples were filtered using syringe filter 0.20 μm for HPLC analysis. The HPLC apparatus consisted of a Dionex P580 pump and Dionex ASI-100 autosampler connected to a Dionex RF-2000 fluorescence detector (λex=333 nm; λem=460 nm) and a Dionex UVD340 U UV detector at 257 nm. Elution was through a nucleosil 100-5 C18 column (250×4.6 mm, 5 μm particle size; Chrompack) with water/acetonitrile/acetic acid (100:100:1, v/v/v) at a 0.6 mL/min flow-rate. The column was kept at 30° C. and was connected to guard column (C18, 1 mm, Optimize technologies). The OTA and its degradation products were monitored both by uv at 235 nm and fluorescence (excitation at 278 nm emission at 440 nm).
Thirty enzymes including various lipases, proteases and amdiases were investigated for their ability to degrade ochratoxin A (Table 1). […] To facilitate the comparison of these three enzymes, the protein concentration of PEPAd was determined and enzyme solutions of carboxypeptidase A and Amano™ lipase A were prepared at the same concentration (1 mg/ml). A kinetic of the degradation was carried out (FIG. 1). […] Amano™ lipase A product was a mixture of different enzymes with the dominant activity being lipase. […] Other proteases, lipases and amidases listed in Table 1 were not able to break OTA down (data not shown).

[3] = activity of three fungal amidases on ochratoxin A (intracellular cell-free fraction); format: biochemical; conditions: for Activity on ochratoxin A expressed as ochratoxin A peak area: remaining OTA, 20 μl intracellular cell-free fraction, pH7, 23° C., 17 h
Protocol: The reaction mixture using OTA as substrate consisted of 75 μl phosphate (67 mM, pH7), 5 μl OTA (2.4 μg/ml) and 20 μl intracellular cell-free fraction. The reaction was performed at 23° C. for 17 h and stopped by adding 0.15 ml acetonitrile and analyzed on HPLC with an injection volume of 5 μl.

[4] = Abrunhosa et al., Toxins 2010; cited from earlier work

Molecule	ability to degrade ochratoxin A ([2]; 37° C.)	Activity on ochratoxin A expressed as ochratoxin A peak area [3]	other results
C[C@@H]1Cc2c(Cl)cc(C(=O)O)c(O)c2C(=O)O1 [ochratoxin α]	–	–	elimination half-time in the body [1]: 9.6 h
C[C@@H]1Cc2c(Cl)cc(C(=O)N[C@@H](Cc3ccccc3)C(=O)O)c(O)c2C(=O)O1 [OTA, ochratoxin A]	–	–	elimination half-time in the body [1]: 103 h
porcine elastase: serine protease elastase from porcine pancreas (Sigma E0258) [reference compound]	showed certain activity with OTA	–	–
amidase from Aspergillus oryzae: hypothetical protein from Aspergillus oryzae (XP_001826758) expressed intracellularly in Aspergillus niger (protein, listed as Aspergillus oryzae) MHRMLTDDRLYRVDADLLIPGKGDPIPHGAVVWQCKTIRYAGPRSGVPTEFQGATTTHVPVVMPGMWDCHIHFLGATAATMNAIVDTPQALAGARSVPDLHATVMAGFTSVREVGGYGCDLAKAVGEGRIPGPNIYSSHSAISMTAGHGDVHGVHRDSLLDLCAHGLPLTIADGVPECLLAVRKQLRRGAKVIKVCASGGVVSAIDDPQHQEFSFEELKAIVDEAARARRVVAAHCHGKAGIMNALRAGCRTIEHGSFLDEEAVGLMKEKGAILVATRSVIESGLAMKDLFTPSSYQKLLAVADAHRKAYQLAISRGVTIALGTDQFISSDNPMIGYGRNGHEVRYAVDAGLTPLAAIEAATANGPLTLGYQAPQSGQLKEGYDADIIAVRENPLENVAVLSNSKNVTHVWRGGMLIKS	–	8.57	–
amidase from Glomerella graminicola: putative amidohydrolase from Glomerella graminicola (EFQ25792) expressed intracellularly in Trichoderma reesei (protein, listed as Glomerella graminicola) MGGSFRPNYADGPEPPFSPTKKTTLVIIKTSLLIPGDGEPLKDGALVISSKVIAWVGPQSSLPSEYADSPHRSYTVPYLMPGLWDCHAHFGGESPNDDGGNDPYQVFITEHPAASGARLTRGCWLALQRGYTSLRDVAGLGCEVSRAIEDGSIVGPNVYSSGSGLSQLAGHGDIFSLPAGDVLLNLGVSQITPGHFGTHATMIVDGVDECRRAVRLQIRRGAKCIKVMASGGVMSRDDNPNYAQFSAAELETIVEEATRQNRVVAAHVHGKAGILAAINAGVTTLEHASFADRECIDLIKEKGIVYIATRIVVHLLLSTGGKGLPPTVWEKAKLVAKNHMTAYKMAIESGVQIALGTDTGPGYNMATELECAVEAGMSNLEAIKAATANGPLSVGGQAPKTGQLKVGYEADVIGLLQNPVEDVKVLQKVDNVGWVWKGGKLFKGPGVGPWGEEPGVWEDITGVSRLRCTTGY	–	0.68	–
yeast carboxypeptidase Y: Carboxypeptidase Y from baker's yeast (Saccharomyces cerevisiae) (protein, listed as Saccharomyces cerevisiae) MKAFTSLLCGLGLSTTLAKAISLQRPLGLDKDVLLQAAEKFGLNLDLDHLLKELDSNVLDAWAQIEHLYPNQVMSLETSTKPKFPEAIKTKKDWDFVVKNDAIENYQLRVNKIKDPKILGIDPNVTQYTGYLDVEDEDKHFFFWTFESRNDPAKDPVILWLNGGPGCSSLTGLFFELGPSSIGPDLKPIGNPYSWNSNATVIFLDQPVNVGFSYSGSSGVSNTVAAGKDVYNFLELFFDQFPEYVNKGQDFHIAGESYAGHYIPVFASEILSHKDRNFNLTSVLIGNGLTDPLTQYNYYEPMACGEGGEPSVLPSEECSAMEDSLERCLGLIESCYDSQSVWSCVPATIYCNNAQLAPYQRTGRNVYDIRKDCEGGNLCYPTLQDIDDYLNQDYVKEAVGAEVDHYESCNFDINRNFLFAGDWMKPYHTAVTDLLNQDLPILVYAGDKDFICNWLGNKAWTDVLPWKYDEEFASQKVRNWTASITDEVAGEVKSYKHFTYLRVFNGGHMVPFDVPENALSMVNEWIHGGFSL	showed certain activity with OTA	–	ochratoxin degrading activity [4]: low ochratoxin degradding activity
PEPAd: a Danisco aspartic acid protease cloned from A. niger (protein, Aspergillus niger) MHLPQRLVTAACLCASATAFIPYTIKLDTSDDISARDSLARRFLPVPNPSDALADDSTSSASDESLSLNIKRIPVRRDNDFKIVVAETPSWSNTAALDQDGSDISYISVVNIGSDEKSMYMLLDTGGSDTWVFGSNCTSTPCTMHNTFGSDDSSTLEMTSEEWSVGYGTGSVSGLLGKDKLTIANVTVRMTFGLASNASDNFESYPMDGILGLGRTNDSSYDNPTFMDAVAESNVFKSNIVGFALSRSPAKDGTVSFGTTDKDKYTGDITYTDTVGSDSYWRIPVDDVYVGGTSCDFSNKSAIIDTGTSYAMLPSSDSKTLHSLIPGAKSSGSYHIIPCNTTTKLQVAFSGVNYTISPKDYVGATSGSGCVSNIISYDLFGDDIWLLGDTFLKNVYAVFDYDELRVGFAERSSNTTSASNSTSSGTSSTSGSTTTGSSTTTTSSASSSSSSDAESGSSMTIPAPQYFFSALAIASFMLWL	showed an OTA converting activity although this was less efficient	–	conversion of OTA ([2]; after 1 day reaction, 37° C., same protein concentration (1 mg/ml)): full conversion was not reached
amidase from Metarhizium anisopliae: putative amidohydrolase from Metarhizium anisopliae (EFZ00058) expressed intracellularly in Trichoderma reesei (protein, listed as Metarhizium anisopliae) MTRRVIPHSESAESVDDAQHVSGRIYSTGFGIAVRTGQPQSQDDDAETGVKKVFYTIVMTKLLIPGDGEPIKDAALVVKNKIIDWVGRQADLPNEYTEKPHKLHNVPYLMPGLWDCHVHFAGSNGEREAEEGSTGLSFLADHPTTAGARLARGCWDAIQRGYTSMRDLAGFGCEISKAIEDGVIIGPNIYSAGACLSQLAGHGDVFALPAGDALLNLGLASVKAGQFGAGMSCLVDGVDECRRGVRLQIRRGAKCIKVMASGGVLSRDDNPLYAQFSREELDTIVSEAKRMERTVAAHVHGKPGILQAVEAGVTSVEHVSFADQECIDLIKDRGTIFVGTRTIVNLLLDSKGEGMPKKMWEKAKLVGTHSLEGYKKAIKAGCTIALGTDTEPGFNMAIELQYAVEAGMSSLEAIKAATANGPLTVAGQAPLTGQLKAGYEADMIGVCDNPVEDVKVLQKKSNIGWVWKGGKLFKGPGIGPWGEEL	–	0.96	activity in degrading ochratoxin A (in words) [3]: showed activity in degrading ochratoxin A
carboxypeptidase A: Carboxypeptidase A from bovine pancreas (Sigma) (protein, listed as Bos taurus) MQGLLILSVLLGAALGKEDFVGHQVLRITAADEAEVQTVKELEDLEHLQLDFWRGPGQPGSPIDVRVPFPSLQAVKVFLEAHGIRYRIMIEDVQSLLDEEQEQMFASQSRARSTNTFNYATYHTLDEIYDFMDLLVAEHPQLVSKLQIGRSYEGRPIYVLKFSTGGSNRPAIWIDLGIHSREWITQATGVWFAKKFTEDYGQDPSFTAILDSMDIFLEIVTNPDGFAFTHSQNRLWRKTRSVTSSSLCVGVDANRNWDAGFGKAGASSSPCSETYHGKYANSEVEVKSIVDFVKDHGNFKAFLSIHSYSQLLLYPYGYTTQSIPDKTELNQVAKSAVEALKSLYGTSYKYGSIITTIYQASGGSIDWSYNQGIKYSFTFELRDTGRYGFLLPASQIIPTAQETWLGVLTIMEHTLNNLY	able to breakdown OTA	–	ochratoxin degrading activity [4]: low ochratoxin degradding activity; conversion of OTA ([2]; after 7 h reaction at 37° C., enzyme 1 mg/ml): full conversion of OTA was obtained
